Non-standard residues stand in square brackets, D forms with d. No end group written: not given here. *: point of attachment. Ala(1-Me-3-pyridinium) = C[n+]1cccc(C[C@H](N)C(=O)O)c1; Phe(4-guanidino) = N=C(N)Nc1ccc(C[C@H](N)C(=O)O)cc1; Phe(4-NH2) = Nc1ccc(C[C@H](N)C(=O)O)cc1; 1Nal = N[C@@H](Cc1cccc2ccccc12)C(=O)O; 2Nal = N[C@@H](Cc1ccc2ccccc2c1)C(=O)O; (CH3CH2CH2(CH3))G = N-alkylglycine; Gly(N-cHex) = O=C(O)CNC1CCCCC1; Chg = N[C@H](C(=O)O)C1CCCCC1; Nle = CCCC[C@H](N)C(=O)O; Dab = NCC[C@H](N)C(=O)O; Tfa = O=C(C(F)(F)F)*; βAla = NCCC(=O)O
B1: CH3O-CO-Y-I-R-L-P-NH2 (peptide)
peptide: {CH3O‑CO}-YIRLP-NH2
B2: C-Y-I-R-L-C-NH2 (peptide)
peptide: CYIRLC-NH2
modifications: also: cyclisation unknown (underlining lost)
notes: may be cyclic (disulfide); underlining lost
B3: Ac-G-y-Nle-R-L-NH2 (peptide)
peptide: Ac-G[dY][Nle]RL-NH2
SMILES: CCCC[C@H](NC(=O)[C@@H](Cc1ccc(O)cc1)NC(=O)CNC(C)=O)C(=O)N[C@@H](CCCNC(=N)N)C(=O)N[C@@H](CC(C)C)C(N)=O
B4: Cl2CHCO-Y-I-R-L-P-NH2 (peptide)
peptide: Cl2CHCO-YIRLP-NH2
B5: Ac-Y-I-R-L-P-Dab(Ac-Y-I-R-L-P)-OH (peptide)
peptide: Ac-YIRLP[Dab]-OH
chain: Ac-YIRLP
modifications: also: branched: chain 2 attached to the Dab6 side-chain N
notes: branched peptide
B6: Ac-F(pNH2)-Chg-R-(CH3CH2CH2(CH3))G-G-OH (peptide)
peptide: Ac-[Phe(4-NH2)][Chg]R[(CH3CH2CH2(CH3))G]G-OH
notes: name runs over rows r100 and r101
B7: Ac-Y-{ψ(CH2NH)}-I-R-L-P-NH2 (peptide)
peptide: Ac-YIRLP-NH2
modifications: also: reduced pseudo peptide bond ψ(CH2NH) between Y1 and I2
B8: CH3-CHCl-CO-Y-I-R-L-P-NH2 (peptide)
peptide: {CH3‑CHCl‑CO}-YIRLP-NH2
B9: CH3-SO2-Y-I-R-L-P-NH2 (peptide)
peptide: {CH3‑SO2}-YIRLP-NH2
B10: Ac-y-I-R-L-P-NH2 (peptide)
peptide: YIRLP
modifications: N-term Ac; D-Tyr at 1; C-term NH2
B11: βAla-Y-I-R-G (peptide)
peptide: [βAla]YIRG
modifications: also: cyclisation unknown (underlining lost)
notes: may be cyclic; underlining lost
B12: CClF2-CO-Y-I-R-L-P-NH2 (peptide)
peptide: {CClF2‑CO}-YIRLP-NH2
B13: Ac-Nal(2)-I-R-L-P-NH2 (peptide)
peptide: Ac-[2Nal]IRLP-NH2
B14: CF3-CF2CO-Y-I-R-L-P-NH2 (peptide)
peptide: {CF3‑CF2CO}-YIRLP-NH2
B15: Ac-Nal(1)-I-R-L-P-NH2 (peptide)
peptide: Ac-[1Nal]IRLP-NH2
B16: Ac-Y-I-PalMe(3)-L-P-NH2 (peptide)
peptide: Ac-YI[Ala(1-Me-3-pyridinium)]LP-NH2
SMILES: CC[C@H](C)[C@H](NC(=O)[C@H](Cc1ccc(O)cc1)NC(C)=O)C(=O)N[C@@H](Cc1ccc[n+](C)c1)C(=O)N[C@@H](CC(C)C)C(=O)N1CCC[C@H]1C(N)=O
B17: Ac-Y-I-R-L-A-A-F-T-NH2 (peptide)
peptide: Ac-YIRLAAFT-NH2
B18: Ac-F(pNH2)-Chg-R-(Chx)G-G-OH (peptide)
peptide: Ac-[Phe(4-NH2)][Chg]R[Gly(N-cHex)]G-OH
SMILES: CC(=O)N[C@@H](Cc1ccc(N)cc1)C(=O)N[C@H](C(=O)N[C@@H](CCCNC(=N)N)C(=O)N(CC(=O)NCC(=O)O)C1CCCCC1)C1CCCCC1
B19: CF2H-CO-Y-I-R-L-P-NH2 (peptide)
peptide: {CF2H‑CO}-YIRLP-NH2
B20: Ac-Y(Me)-I-R-L-P-NH2 (peptide)
peptide: XIRLP
modifications: N-term Ac; Y1=Y(Me) O-methyl tyrosine; C-term NH2
B21: Ac-Y-{ψ(CH2N(Ac))}-I-R-L-P-NH2 (peptide)
peptide: Ac-YIRLP-NH2
modifications: also: pseudo peptide bond ψ(CH2N(Ac)) between Y1 and I2
B22: Ac-Phe-(pGua)-I-R-L-P-NH2 (peptide)
peptide: Ac-[Phe(4-guanidino)]IRLP-NH2
SMILES: CC[C@H](C)[C@H](NC(=O)[C@H](Cc1ccc(NC(=N)N)cc1)NC(C)=O)C(=O)N[C@@H](CCCNC(=N)N)C(=O)N[C@@H](CC(C)C)C(=O)N1CCC[C@H]1C(N)=O
B23: Ac-G-G-Y-I-R-G-NH2 (peptide)
peptide: Ac-GGYIRG-NH2
B24: Ac-Y-I-{ψ(CH2NH)}-R-L-P-NH2 (peptide)
peptide: Ac-YIRLP-NH2
modifications: also: reduced pseudo peptide bond ψ(CH2NH) between I2 and R3
B25: CH3CH2-O-CO-Y-I-R-L-P-NH2 (peptide)
peptide: {CH3CH2‑O‑CO}-YIRLP-NH2
B26: Ac-Y-K-R-L-E-NH2 (peptide)
peptide: Ac-YKRLE-NH2
modifications: also: cyclisation unknown (underlining lost)
notes: as for B11
B27: Ac-S-Y-I-R-L-P-NH2 (peptide)
peptide: Ac-SYIRLP-NH2
B28: G-Y-I-R-L-P-NH2 (peptide)
peptide: GYIRLP-NH2
B29: Ac-Y-I-R-L (peptide)
peptide: Ac-YIRL
B30: Ac-Y-I-R-I (peptide)
peptide: Ac-YIRI
B31: Ac-Y-N-R-L-NH2 (peptide)
peptide: Ac-YNRL-NH2
B32: F-I-R-L-N-H2 (peptide)
peptide: FIRL-NH2
notes: probably F-I-R-L-NH2
B33: Tfa-(iBu)Y-I-R-G-NH2 (peptide)
peptide: Tfa-[N(iBu)Y]IRG-NH2
B34: Y-I-R-I-NH2 (peptide)
peptide: YIRI-NH2
B35: Ac-W-L-R-L-A-NH2 (peptide)
peptide: Ac-WLRLA-NH2
B36: w-L-R-V-A-NH2 (peptide)
peptide: [dW]LRVA-NH2
modifications: N-terminus assumed
SMILES: CC(C)C[C@H](NC(=O)[C@H](N)Cc1c[nH]c2ccccc12)C(=O)N[C@@H](CCCNC(=N)N)C(=O)N[C@H](C(=O)N[C@@H](C)C(N)=O)C(C)C
B37: W-L-R-V-A-NH2 (peptide)
peptide: WLRVA-NH2
B38: βAla-Y-I-R-G-NH2 (peptide)
peptide: [βAla]YIRG-NH2
modifications: N-terminus assumed
SMILES: CC[C@H](C)[C@H](NC(=O)[C@H](Cc1ccc(O)cc1)NC(=O)CCN)C(=O)N[C@@H](CCCNC(=N)N)C(=O)NCC(N)=O
B39: Ac-G-Y-Nle-R-L-NH2 (peptide)
peptide: Ac-GY[Nle]RL-NH2
SMILES: CCCC[C@H](NC(=O)[C@H](Cc1ccc(O)cc1)NC(=O)CNC(C)=O)C(=O)N[C@@H](CCCNC(=N)N)C(=O)N[C@@H](CC(C)C)C(N)=O

Molecular target: human factor Xa (Enzyme Research Laboratories, Inc.) (human, UniProt P00742 41-179; P00742 235-488, limits assumed)
Assay: chromogenic FXa inhibition
Description: TBS-P buffer (50 mM Tris-Cl, pH 7.8, 200 mM NaCl, 0.05% (w/v) PEG-8000, 0.02% (w/v) NaN_3) was used for this assay. The IC$50$ was determined by combining in appropriate wells of a Costar half-area microtiter plate 25 μl human factor Xa (Enzyme Research Laboratories, Inc.; South Bend Ind.) in TBS-P; 40 μl 10% (v/v) DMSO in TBS-P (uninhibited control) or various concentrations of a peptide to be tested diluted in 10% (v/v) DMSO in TBS-P; and substrate S-2765 (Nα-benzyloxycarbonyl-D-Arg-Gly-L-Arg-p-nitroanilide; Kabi Pharmacia, Inc.; Franklin Ohio) in TBS-P.
The assays were performed by pre-incubating the peptide inhibitor plus enzyme for 10 min, then the assay was initiated by adding substrate to obtain a final volume of 100 μl. The initial velocity of chromogenic substrate hydrolysis was measured by the change in absorbance at 405 nm using a Bio-tek Instruments kinetic plate reader (Ceres UV900HDi) at 25° C. during the linear portion of the time course (usually 1–5 min after addition of substrate). The concentration of inhibitor that caused a 50% decrease in the rate of substrate hydrolysis was predicted by linear regression after plotting the relative rates of hydrolysis (compared to the uninhibited control) versus the log of the peptide concentration. The enzyme concentration was 0.5 nM and substrate concentration was 140 μM.

Chain of human factor Xa (Enzyme Research Laboratories, Inc.) (P00742 41-179 limits assumed, chain 1 of 2): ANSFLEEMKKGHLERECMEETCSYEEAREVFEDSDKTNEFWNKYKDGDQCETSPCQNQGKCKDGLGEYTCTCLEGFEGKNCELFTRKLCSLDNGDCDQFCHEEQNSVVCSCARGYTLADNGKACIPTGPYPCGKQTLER
Chain of human factor Xa (Enzyme Research Laboratories, Inc.) (P00742 235-488 limits assumed, chain 2 of 2): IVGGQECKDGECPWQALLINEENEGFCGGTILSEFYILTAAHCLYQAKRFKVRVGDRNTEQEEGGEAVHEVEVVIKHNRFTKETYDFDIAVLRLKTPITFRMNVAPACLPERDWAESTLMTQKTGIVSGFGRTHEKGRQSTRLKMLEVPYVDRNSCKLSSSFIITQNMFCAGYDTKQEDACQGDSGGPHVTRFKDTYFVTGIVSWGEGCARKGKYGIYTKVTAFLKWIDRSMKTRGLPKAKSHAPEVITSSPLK

Binder | Ki [µM]
B1 | < 100
B2 | < 100
B3 | < 100
B4 | < 100
B5 | < 100
B6 | < 100
B7 | < 100
B8 | < 100
B9 | < 100
B10 | < 100
B11 | < 100
B12 | < 100
B13 | < 100
B14 | < 100
B15 | < 100
B16 | < 100
B17 | < 100
B18 | < 100
B19 | < 100
B20 | < 100

Binder | Ki [µM]
B21 | < 100
B22 | < 100
B23 | < 100
B24 | < 100
B25 | < 100
B26 | < 100
B27 | < 100
B28 | < 100
B29 | < 100
B30 | < 100
B31 | < 100
B32 | < 100
B33 | < 100
B34 | < 100
B35 | < 100
B36 | < 100
B37 | < 100
B38 | < 100
B39 | < 100

Reference: patent publication US6759384 (AVENTIS PHARMACEUTICALS, dated 2004)
